This note sets out measurements from patent US20160115237A1 (UNIVERSITY OF BRITISH COLUMBIA, published 2016).

Assay [1] deals with PrP rigid loop peptide … (DSE3) (human).
In assay [2] the target is T1, human Fas receptor (FasR) on the surface of HUVEC cells (human, UniProt P25445 26-335).
T1 construct: whole, on cells; also called hTNFRSM6; hTNFR6
T1 sequence (looked up): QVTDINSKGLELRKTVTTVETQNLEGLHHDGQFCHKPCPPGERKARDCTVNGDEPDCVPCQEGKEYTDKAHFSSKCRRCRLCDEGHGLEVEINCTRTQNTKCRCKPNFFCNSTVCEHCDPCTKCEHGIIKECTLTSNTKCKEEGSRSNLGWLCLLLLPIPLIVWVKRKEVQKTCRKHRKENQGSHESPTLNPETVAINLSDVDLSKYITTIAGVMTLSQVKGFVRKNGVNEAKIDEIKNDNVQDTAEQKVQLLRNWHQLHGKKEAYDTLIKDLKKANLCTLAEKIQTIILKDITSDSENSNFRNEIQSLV
Put plainly: flow cytometry on mitomycin C-treated senescent HUVEC cells, antibody at 40 µg/ml. In general terms: A flow cytometer gives signals particle by particle.

B1: antibody c-120 (misfolded PrP rigid loop antibody) (antibody)
heavy: QSVEESGGHLVTPGTPLTLTCTVSGIDLSTYAMGWVRQAPGKGLEWIGVITKSGNTYYASWAKGRFAISKTSTTVDLKITSPTTEDTATYFCGRYGIGVSYYDIWGPGTLVTVSSGQPKAPSVFPLAPCCGDTPSSTVTLGCLVKGYLPEPVTVTWNSGTLTNGVRTFPSVRQSSGLYSLSSVVSVTSSSQPVTCNVAHPATNTKVDKTVAPSTCSKPTCPPPELLGGPSVFIFPPKPKDTLMISRTPEVTCVVVDVSQDDPEVQFTWYINNEQVRTARPPLREQQFNSTIRVVSTLPIAHQDWLRGKEFKCKVHNKALPAPIEKTISKARGQPLEPKVYTMGPPREELSSRSVSLTCMINGFYPSDISVEWEKNGKAEDNYKTTPAVLDSDGSYFLYSKLSVPTSEWQRGDVFTCSVMHEALHNHYTQKSISRSPGK
light: AQVLTQTPSPVSAAVGGTVTINCQSSQSLYNKNWLSWYQKKPGQPPKLLIYKASTLESGVSSRFKGSGSGTQFTLTISGVQCDDAATYYCQGEFSCSSADCTAFGGGTEVVVKGDPVAPTVLIFPPAADQVATGTVTIVCVANKYFPDVTVTWEVDGTTQTTGIENSKTPQNSADCTYNLSSTLTLTSTQYNSHKEYTCKVTQGTTSVVQSFNRGDC
As for B1, the Kd (as a rule, a measure of binding affinity in units of concentration) in assay [1] was 0.1 nM.

B2: antibody AMF-3a-118 (misfolded FasR antibody) (antibody, V domains shown)
VH: QSVEESGGRLVTPGTPLTLTCKASGFSLSDSRVSWVRQAPGKGLEWIGIVGIGWNIYHANWAKGRFTISKTSSTTVDLKITSPTVEDTATYFCARGLGGGTVIWGPGTLVTVSL
VL: AQVLTQTPASVSAAVGGTVTISCQSSESVYKNNYLSWFQQKPGQPPKLLIYEASKLASGVSTRFKGSGSGTQFTLTISGVQCDDAATYYCLGEFSCYSGDCGTFGGGTAVVVKG
Regarding B2, the binding result in assay [2] is “binds”.
